Positions count from the first letter of the chain named. In names and notes the source's numbering stands.
B1: Vps1 (yeast dynamin), wild type, recombinant His tag fusion (natural protein, yeast (budding yeast), UniProt P21576 1-704, looked up)
chain: MDEHLISTINKLQDALAPLGGGSQSPIDLPQITVVGSQSSGKSSVLENIVGRDFLPRGTGIVTRRPLVLQLINRRPKKSEHAKVNQTANELIDLNINDDDKKKDESGKHQNEGQSEDNKEEWGEFLHLPGKKFYNFDEIRKEIVKETDKVTGANSGISSVPINLRIYSPHVLTLTLVDLPGLTKVPVGDQPPDIERQIKDMLLKYISKPNAIILSVNAANTDLANSDGLKLAREVDPEGTRTIGVLTKVDLMDQGTDVIDILAGRVIPLRYGYIPVINRGQKDIEHKKTIREALENERKFFENHPSYSSKAHYCGTPYLAKKLNSILLHHIRQTLPEIKAKIEATLKKYQNELINLGPETMDSASSVVLSMITDFSNEYAGILDGEAKELSSQELSGGARISYVFHETFKNGVDSLDPFDQIKDSDIRTIMYNSSGSAPSLFVGTEAFEVLVKQQIRRFEEPSLRLVTLVFDELVRMLKQIISQPKYSRYPALREAISNQFIQFLKDATIPTNEFVVDIIKAEQTYINTAHPDLLKGSQAMVMVEEKLHPRQVAVDPKTGKPLPTQPSSSKAPVMEEKSGFFGGFFSTKNKKKLAALESPPPVLKATGQMTERETMETEVIKLLISSYFSIVKRTIADIIPKALMLKLIVKSKTDIQKVLLEKLYGKQDIEELTKENDITIQRRKECKKMVEILRNASQIVSSV
notes: Vps1, dynamin-like protein of budding yeast; wild-type VPS1 expressed as a His tag fusion; Template plasmids pKA677 and pKA850 are named; Forms oligomeric rings by EM; also called wild-type Vps1; yeast dynamin Vps1; source: E. coli (C43), purified
B2: Vps1 RR457,458EE, recombinant His tag fusion (natural protein, yeast (budding yeast), UniProt P21576 1-704, looked up)
chain: B1 chain with R457E, R458E
notes: Vps1 of budding yeast with the charge-switch mutations R457E and R458E in a helix of the stalk domain; Made by site-directed mutagenesis of template plasmids pKA677 and pKA850; also called RR-EE; Vps1 RR-EE; source: E. coli (C43), purified

What was measured:
[1] = target: the molecule itself; assay: negative-stain electron microscopy; purified Vps1 imaged directly, adsorbed on carbon-coated grids, negative staining with uranyl formate; oligomeric rings
[2] = target: rabbit muscle actin (F-actin) (rabbit, UniProt P68135 1-377); assay: co-sedimentation; high-speed F-actin pelleting: purified Vps1 (supernatant of a 90,000 x g pre-spin) mixed with pre-polymerized yeast or rabbit muscle F-actin (10% KME pH 8), 15 min, spun 90,000 x g; supernatant and pellet by SDS-PAGE, densitometry; KD from a single site binding curve over a range of Vps1 concentrations; 1.5 uM Vps1 with 3 uM F-actin in Figure 1A; settings: both partners purified

| Binder | binding result [1] | Kd [2] |
| --- | --- | --- |
| B1 | binds | 920 ± 310 nM |
| B2 | binds |  |

Reference: article PMC4386032, “A Dynamin-Actin Interaction Is Required for Vesicle Scission during Endocytosis in Yeast” (Current Biology, 2015)
